Results published in patent US20200079833A1 (AstraZeneca / MedImmune, published 2020).
Starred links: 1 amine or outer side, 2 acyl side, 3 side chain; linkers in the order of their positions; H or OH if unused. Non-standard residues stand in square brackets, D forms with d. Groups on a side chain read outwards from the residue. No end group written: not given here. *: point of attachment. γGlu = O=C(O)[C@H](CCC(=O)[*:2])N[*:1]; Palmitoyl = CCCCCCCCCCCCCCCC(=O)*; αMeF = C[C@](N)(Cc1ccccc1)C(=O)O; αMeK = C[C@](N)(CCCCN)C(=O)O; αMeS = C[C@](N)(CO)C(=O)O; Aib = CC(C)(N)C(=O)O

T1: glucose-dependent insulinotropic peptide (gastric inhibitory polypeptide) receptor (GIPR) (human, UniProt P48546 22-466)
T1 sequence (looked up): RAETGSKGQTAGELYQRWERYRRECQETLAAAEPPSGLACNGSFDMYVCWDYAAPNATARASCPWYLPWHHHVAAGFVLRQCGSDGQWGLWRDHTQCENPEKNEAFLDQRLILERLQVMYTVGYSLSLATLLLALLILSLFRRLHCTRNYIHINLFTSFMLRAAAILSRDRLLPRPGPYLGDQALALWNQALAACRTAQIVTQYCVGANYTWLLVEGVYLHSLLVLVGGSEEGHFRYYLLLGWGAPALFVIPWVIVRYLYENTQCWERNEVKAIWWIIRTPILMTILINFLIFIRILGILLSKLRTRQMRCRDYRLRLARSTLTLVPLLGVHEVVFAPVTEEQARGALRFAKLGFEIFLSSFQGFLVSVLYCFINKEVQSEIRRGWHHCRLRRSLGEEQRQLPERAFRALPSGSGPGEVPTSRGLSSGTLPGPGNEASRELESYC

B1: SEQ ID NO 86 (peptide)
peptide: H[Aib]EGS[αMeF]TSDV[αMeS]S[αMeF]K([γGlu-Palmitoyl])EGEAA[αMeK]E[αMeF]IA[αMeF]VV[αMeK]GG-NH2
modifications: N-terminus assumed
SMILES: CCCCCCCCCCCCCCCC(=O)N[C@@H](CCC(=O)NCCCC[C@H](NC(=O)[C@](C)(Cc1ccccc1)NC(=O)[C@H](CO)NC(=O)[C@](C)(CO)NC(=O)[C@@H](NC(=O)[C@H](CC(=O)O)NC(=O)[C@H](CO)NC(=O)[C@@H](NC(=O)[C@](C)(Cc1ccccc1)NC(=O)[C@H](CO)NC(=O)CNC(=O)[C@H](CCC(=O)O)NC(=O)C(C)(C)NC(=O)[C@@H](N)Cc1c[nH]cn1)[C@@H](C)O)C(C)C)C(=O)N[C@@H](CCC(=O)O)C(=O)NCC(=O)N[C@@H](CCC(=O)O)C(=O)N[C@@H](C)C(=O)N[C@@H](C)C(=O)N[C@@](C)(CCCCN)C(=O)N[C@@H](CCC(=O)O)C(=O)N[C@@](C)(Cc1ccccc1)C(=O)N[C@H](C(=O)N[C@@H](C)C(=O)N[C@@](C)(Cc1ccccc1)C(=O)N[C@H](C(=O)N[C@H](C(=O)N[C@@](C)(CCCCN)C(=O)NCC(=O)NCC(N)=O)C(C)C)C(C)C)[C@@H](C)CC)C(=O)O
B2: SEQ ID NO 87 (peptide)
peptide: H[Aib]EGS[αMeF]TSDV[αMeS]SK([γGlu-Palmitoyl])LEGEAA[αMeK]E[αMeF]IA[αMeF]VV[αMeK]GG-NH2
modifications: N-terminus assumed
SMILES: CCCCCCCCCCCCCCCC(=O)N[C@@H](CCC(=O)NCCCC[C@H](NC(=O)[C@H](CO)NC(=O)[C@](C)(CO)NC(=O)[C@@H](NC(=O)[C@H](CC(=O)O)NC(=O)[C@H](CO)NC(=O)[C@@H](NC(=O)[C@](C)(Cc1ccccc1)NC(=O)[C@H](CO)NC(=O)CNC(=O)[C@H](CCC(=O)O)NC(=O)C(C)(C)NC(=O)[C@@H](N)Cc1c[nH]cn1)[C@@H](C)O)C(C)C)C(=O)N[C@@H](CC(C)C)C(=O)N[C@@H](CCC(=O)O)C(=O)NCC(=O)N[C@@H](CCC(=O)O)C(=O)N[C@@H](C)C(=O)N[C@@H](C)C(=O)N[C@@](C)(CCCCN)C(=O)N[C@@H](CCC(=O)O)C(=O)N[C@@](C)(Cc1ccccc1)C(=O)N[C@H](C(=O)N[C@@H](C)C(=O)N[C@@](C)(Cc1ccccc1)C(=O)N[C@H](C(=O)N[C@H](C(=O)N[C@@](C)(CCCCN)C(=O)NCC(=O)NCC(N)=O)C(C)C)C(C)C)[C@@H](C)CC)C(=O)O
B3: SEQ ID NO 88 (peptide)
peptide: HXEGSFTSDVSKFLEGEAAKEFIAFVVKGG
modifications: Aib 2; α-MeF 6, 13, 22, 25; α-MeS 11; α-MeK 20, 28; K(ε-γE-Palmitoyl) 12; C-terminal amide
B4: SEQ ID NO 89 (peptide)
peptide: H[Aib]EGS[αMeF]TSDVK([γGlu-Palmitoyl])S[αMeF]LEGEAA[αMeK]E[αMeF]IA[αMeF]VV[αMeK]GG-NH2
modifications: N-terminus assumed
SMILES: CCCCCCCCCCCCCCCC(=O)N[C@@H](CCC(=O)NCCCC[C@H](NC(=O)[C@@H](NC(=O)[C@H](CC(=O)O)NC(=O)[C@H](CO)NC(=O)[C@@H](NC(=O)[C@](C)(Cc1ccccc1)NC(=O)[C@H](CO)NC(=O)CNC(=O)[C@H](CCC(=O)O)NC(=O)C(C)(C)NC(=O)[C@@H](N)Cc1c[nH]cn1)[C@@H](C)O)C(C)C)C(=O)N[C@@H](CO)C(=O)N[C@@](C)(Cc1ccccc1)C(=O)N[C@@H](CC(C)C)C(=O)N[C@@H](CCC(=O)O)C(=O)NCC(=O)N[C@@H](CCC(=O)O)C(=O)N[C@@H](C)C(=O)N[C@@H](C)C(=O)N[C@@](C)(CCCCN)C(=O)N[C@@H](CCC(=O)O)C(=O)N[C@@](C)(Cc1ccccc1)C(=O)N[C@H](C(=O)N[C@@H](C)C(=O)N[C@@](C)(Cc1ccccc1)C(=O)N[C@H](C(=O)N[C@H](C(=O)N[C@@](C)(CCCCN)C(=O)NCC(=O)NCC(N)=O)C(C)C)C(C)C)[C@@H](C)CC)C(=O)O
B5: SEQ ID NO 90 (peptide)
peptide: H[Aib]EGS[αMeF]TSDK([γGlu-Palmitoyl])[αMeS]S[αMeF]LEGEAA[αMeK]E[αMeF]IA[αMeF]VV[αMeK]GG-NH2
modifications: N-terminus assumed
SMILES: CCCCCCCCCCCCCCCC(=O)N[C@@H](CCC(=O)NCCCC[C@H](NC(=O)[C@H](CC(=O)O)NC(=O)[C@H](CO)NC(=O)[C@@H](NC(=O)[C@](C)(Cc1ccccc1)NC(=O)[C@H](CO)NC(=O)CNC(=O)[C@H](CCC(=O)O)NC(=O)C(C)(C)NC(=O)[C@@H](N)Cc1c[nH]cn1)[C@@H](C)O)C(=O)N[C@@](C)(CO)C(=O)N[C@@H](CO)C(=O)N[C@@](C)(Cc1ccccc1)C(=O)N[C@@H](CC(C)C)C(=O)N[C@@H](CCC(=O)O)C(=O)NCC(=O)N[C@@H](CCC(=O)O)C(=O)N[C@@H](C)C(=O)N[C@@H](C)C(=O)N[C@@](C)(CCCCN)C(=O)N[C@@H](CCC(=O)O)C(=O)N[C@@](C)(Cc1ccccc1)C(=O)N[C@H](C(=O)N[C@@H](C)C(=O)N[C@@](C)(Cc1ccccc1)C(=O)N[C@H](C(=O)N[C@H](C(=O)N[C@@](C)(CCCCN)C(=O)NCC(=O)NCC(N)=O)C(C)C)C(C)C)[C@@H](C)CC)C(=O)O
B6: SEQ ID NO 91 (peptide)
peptide: H[Aib]EGS[αMeF]TSK([γGlu-Palmitoyl])V[αMeS]S[αMeF]LEGEAA[αMeK]E[αMeF]IA[αMeF]VV[αMeK]GG-NH2
modifications: N-terminus assumed
SMILES: CCCCCCCCCCCCCCCC(=O)N[C@@H](CCC(=O)NCCCC[C@H](NC(=O)[C@H](CO)NC(=O)[C@@H](NC(=O)[C@](C)(Cc1ccccc1)NC(=O)[C@H](CO)NC(=O)CNC(=O)[C@H](CCC(=O)O)NC(=O)C(C)(C)NC(=O)[C@@H](N)Cc1c[nH]cn1)[C@@H](C)O)C(=O)N[C@H](C(=O)N[C@@](C)(CO)C(=O)N[C@@H](CO)C(=O)N[C@@](C)(Cc1ccccc1)C(=O)N[C@@H](CC(C)C)C(=O)N[C@@H](CCC(=O)O)C(=O)NCC(=O)N[C@@H](CCC(=O)O)C(=O)N[C@@H](C)C(=O)N[C@@H](C)C(=O)N[C@@](C)(CCCCN)C(=O)N[C@@H](CCC(=O)O)C(=O)N[C@@](C)(Cc1ccccc1)C(=O)N[C@H](C(=O)N[C@@H](C)C(=O)N[C@@](C)(Cc1ccccc1)C(=O)N[C@H](C(=O)N[C@H](C(=O)N[C@@](C)(CCCCN)C(=O)NCC(=O)NCC(N)=O)C(C)C)C(C)C)[C@@H](C)CC)C(C)C)C(=O)O
B7: SEQ ID NO 92 (peptide)
peptide: H[Aib]EGS[αMeF]TK([γGlu-Palmitoyl])DV[αMeS]S[αMeF]LEGEAA[αMeK]E[αMeF]IA[αMeF]VV[αMeK]GG-NH2
modifications: N-terminus assumed
SMILES: CCCCCCCCCCCCCCCC(=O)N[C@@H](CCC(=O)NCCCC[C@H](NC(=O)[C@@H](NC(=O)[C@](C)(Cc1ccccc1)NC(=O)[C@H](CO)NC(=O)CNC(=O)[C@H](CCC(=O)O)NC(=O)C(C)(C)NC(=O)[C@@H](N)Cc1c[nH]cn1)[C@@H](C)O)C(=O)N[C@@H](CC(=O)O)C(=O)N[C@H](C(=O)N[C@@](C)(CO)C(=O)N[C@@H](CO)C(=O)N[C@@](C)(Cc1ccccc1)C(=O)N[C@@H](CC(C)C)C(=O)N[C@@H](CCC(=O)O)C(=O)NCC(=O)N[C@@H](CCC(=O)O)C(=O)N[C@@H](C)C(=O)N[C@@H](C)C(=O)N[C@@](C)(CCCCN)C(=O)N[C@@H](CCC(=O)O)C(=O)N[C@@](C)(Cc1ccccc1)C(=O)N[C@H](C(=O)N[C@@H](C)C(=O)N[C@@](C)(Cc1ccccc1)C(=O)N[C@H](C(=O)N[C@H](C(=O)N[C@@](C)(CCCCN)C(=O)NCC(=O)NCC(N)=O)C(C)C)C(C)C)[C@@H](C)CC)C(C)C)C(=O)O

Molecular target: glucagon receptor (GCGR) (human, UniProt P47871 26-477)
Sequence (P47871 26-477): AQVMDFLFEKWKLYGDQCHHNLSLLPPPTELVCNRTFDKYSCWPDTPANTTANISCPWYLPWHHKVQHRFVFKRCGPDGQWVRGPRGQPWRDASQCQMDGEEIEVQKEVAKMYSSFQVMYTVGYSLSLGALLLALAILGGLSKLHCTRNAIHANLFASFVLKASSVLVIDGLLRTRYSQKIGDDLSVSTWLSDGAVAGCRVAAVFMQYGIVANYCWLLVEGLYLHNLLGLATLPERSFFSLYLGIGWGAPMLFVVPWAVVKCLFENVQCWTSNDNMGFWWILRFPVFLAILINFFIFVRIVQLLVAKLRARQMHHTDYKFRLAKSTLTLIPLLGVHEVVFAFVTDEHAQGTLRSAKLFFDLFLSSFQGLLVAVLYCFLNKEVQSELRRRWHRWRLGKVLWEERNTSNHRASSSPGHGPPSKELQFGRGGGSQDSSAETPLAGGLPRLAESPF
Assay: cell-based or functional assay

Binder	cAMP Primary assay EC50 Gluc-R	cAMP Primary assay EC50 Gluc-R (2nd)
B1	28 nM	28 nM
B2	28 nM	28 nM
B3	28 nM	28 nM
B4	28 nM	28 nM
B5	28 nM	28 nM
B6	28 nM	28 nM
B7	28 nM	28 nM

Molecular target: T1, glucose-dependent insulinotropic …
Assay: cell-based or functional assay

Binder	cAMP Primary assay EC50 GIP-R	cAMP Primary assay EC50 GIP-R (2nd)
B1	28 nM	28 nM
B2	28 nM	28 nM
B3	28 nM	28 nM
B4	28 nM	28 nM
B5	28 nM	28 nM
B6	28 nM	28 nM
B7	28 nM	28 nM

Molecular target: GLP-1 receptor (GLP-1R) (human, UniProt P43220 24-463)
Assay: cell-based or functional assay

Binder	cAMP Mean pM GLP-1R	cAMP Primary assay EC50 GLP-1R n1	cAMP Primary assay EC50 GLP-1R n2
B1	1.5 pM	0.0013 nM	0.0017 nM
B2	1.6 pM	0.0016 nM	0.0016 nM
B3	5 pM	0.0043 nM	0.0057 nM
B4	548 pM	0.45 nM	0.65 nM
B5	0.7 pM	0.00068 nM	0.00079 nM
B6	24 pM	0.021 nM	0.027 nM
B7	423 pM	0.45 nM	0.39 nM
